Assay results taken from US20170240592A1, “GADD45BETA/MKK7 INHIBITOR FOR THE TREATMENT OF A RESISTANT HAEMATOLOGICAL MALIGNANCY” (IMPERIAL INNOVATIONS LIMITED, priority 2014, published 2017).
Square brackets hold non-standard residues; d marks the D form. * marks the point of attachment. Cbz = O=C(OCc1ccccc1)*

Columns and labels:
KMS-12 cells = experiment: [3H]thymidine incorporation assay, DTP3 and bortezomib as single agents or in combination, KMS-12; conditions: Homo sapiens, 48 h, read-out: IC50 value as single agent
Procedure: (§2) Treatments with DTP3 were for 6 days; bortezomib was added to the cell cultures 48 hr prior to the measurement of cell viability. For the combination treatment, DTP3 was used at the concentrations of 3 nM in U266 cells and of 10 nM in KMS-12 cells, whereas bortezomib was used at increasing concentrations, as shown.
Viability data from the experiment shown in FIG. 12 were converted into values representing the fraction of cells affected (FA) equaling 0.5 in the drug-treated cultures compared with untreated cultures, and the interaction of DTP3 with bortezomib was analysed according to the Chou-Talalay method (Chou, 2006). Also shown are the drug concentrations giving the FA value of 0.5 and the description of the CI. Based on the Chou-Talalay equation (Chou, 2006), synergy is present when the CI is less than 1.0 (where values between 0.3 and 0.7 denote synergism, and values between 0.1 and 0.3 denote strong synergism); the combination is additive when CI equals 1.0, and antagonistic when it is more than 1.0 (Chou, 2006).
(§3) [^3H]Thymidine incorporation assays were performed using standard protocols (Griffiths and Sundaram, 2011). […] At 24, 72 or 144 hr, cells were incubated for an additional 16 hr with 0.037 MBq/well of [^3H]thymidine (Amersham), and then harvested onto glass fibre filter mats using a 96-well plate automated Tomtec cell harvester (Receptor Technologies) and analysed by liquid scintillation spectroscopy with a LKB Wallac Trilux Microbeta 3 b-counter (PerkinElmer). Values were expressed as the percentage of the counts per minute (cpm) measured in the treated cultures relative to the cpm measured in the respective untreated cultures. […]
The activities of DTP3 and bortezomib in the U266 and KMS-12 myeloma cell lines, both as single agents and in combination, were determined using [^3H]thymidine incorporation assays, performed as described above in “Cell Proliferation, Cell Death, and Apoptosis Assays”. The IC50 values of bortezomib as single agent were determined at 48 hr using 9 concentrations of drug, ranging from 0.1 to 1,000 nM.

U266 cells = experiment: [3H]thymidine incorporation assay, DTP3 and bortezomib as single agents or in combination, U266; conditions: Homo sapiens, U-266, 48 h, read-out: IC50 value as single agent
Procedure: as §2
Viability data from the experiment shown in FIG. 12 were converted into values representing the fraction of cells affected (FA) equaling 0.5 in the drug-treated cultures compared with untreated cultures, and the interaction of DTP3 with bortezomib was analysed according to the Chou-Talalay method (Chou, 2006). Also shown are the drug concentrations giving the FA value of 0.5 and the description of the CI. […]
as §3

[1] = tested on: diffuse large B-cell lymphoma (DLBCL) cell lines; experiment: PI nuclear staining assay, apoptotic cells in DLBCL cell lines; assay type: cell-based, human; conditions: 6 days; sensitive and insensitive DLBCL cell lines; baseline level
Procedure: Current treatment of diffuse large B-cell lymphoma typically involves treatment with combination therapy, such as cyclophosphamide, doxorubicin, vincristine and prednisone (CHOP), or rituximab, cyclophosphamide, doxorubicin, vincristine and prednisone (R-CHOP). With those current treatments, many patients relapse and/or develop drug resistance at some point. The potential of the Gadd45β/MKK7 inhibitor DTP3 to operate in these settings was evaluated, by determining levels of apoptosis in diffuse large B-cell lymphoma cell lines known to be resistant to current therapies (HT, SU-DHL-8, U-2932, RC-K8 and RIVA, see for example Kaneko et al, Clinical Cancer Research, 2014, 20, p 1814-1820; Naylor et al, Cancer Research, 2011, Volume 71, p 2643-2653; Lyu et al, Cancer Research, 2013, Volume 73, Issue 8, Supplement 1), following treatment of those cells with DTP3. These cells have CARD11, A20 and/or MYD88 mutations and are also known to be resistant to agents such as Bruton's tyrosine kinase inhibitors, spleen tyrosine kinase inhibitors, PI3K inhibitors and/or protein kinase C inhibitors.
The percentages of apoptotic cells are depicted.
A comparison was made between the ability of DTP3 to kill various DLBCL cell lines by apoptosis in vitro. Cell lines HT, SU-DHL-8, U-2932 and RC-K8 which are known to be sensitive to DTP3; and insensitive cell lines RI-1, NU-DUL-1, TMD8, and HBL1 were used. Cell death was assessed using a standard propidium iodide (PI) nuclear staining assay followed by flow cytometry whereby the proportion of cells with a sub G1-DNA content was measured after cells had been exposed to DTP3 for 6 days at 10 μM. As controls, further populations of cells were left untreated (UT) or were treated with a scrambled D-tripeptide (SCR) for 6 days.
Apoptosis analyses were performed using propidium iodide (PI) nuclear labelling, as described previously (Riccardi and Nicoletti, 2006). Briefly, cells were seeded at a density of 2×10^5 cells/well into wells of either 24- or 48-well plates and cultured in the presence or absence of treatment, as shown. Cells were then fixed in 70% ice-cold ethanol for 16 hr, washed in PBS, and treated with ribonuclease A (50 μg/mL) for 30 min at room temperature. Samples were finally stained with PI (50 μg/mL) in 0.1% sodium citrate buffer for 2 to 4 hr at 4° C. in the dark, and data were acquired using a FACSCalibur automated system (Becton Dickinson) and analysed with FlowJo.

Gadd45β/MKK7 complex = molecular target: T1, Gadd45β/MKK7 complex (Homo sapiens, UniProt O14733); experiment: co-immunoprecipitation assay; assay type: binding; conditions: anti-FLAG immunoprecipitates, HEK-293T lysates
T1 construct: expressed in transfected cells; host or cells: human HEK-293T
T1 sequence (O14733 1-419): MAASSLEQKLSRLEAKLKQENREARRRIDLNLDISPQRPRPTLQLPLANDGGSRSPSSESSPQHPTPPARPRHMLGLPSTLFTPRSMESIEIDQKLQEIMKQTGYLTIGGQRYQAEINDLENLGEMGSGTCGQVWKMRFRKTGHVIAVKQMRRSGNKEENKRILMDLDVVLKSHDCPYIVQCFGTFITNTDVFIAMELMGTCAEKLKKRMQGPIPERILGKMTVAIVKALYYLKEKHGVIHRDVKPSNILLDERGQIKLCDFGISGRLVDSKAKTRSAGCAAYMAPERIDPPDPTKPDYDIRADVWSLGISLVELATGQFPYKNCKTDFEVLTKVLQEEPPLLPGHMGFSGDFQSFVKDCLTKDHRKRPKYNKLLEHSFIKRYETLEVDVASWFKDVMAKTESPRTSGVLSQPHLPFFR
Procedure: (§1) Values express the percentage of live cells present in the treated cultures relative to the live cells present in the respective untreated cultures and denote means±SD ([WM]; n=3). UT, untreated. […] Values express the percentage of inhibition of Gadd45β binding to MKK7 relative to the binding measured in the absence of peptide. […] Co-immunoprecipitations (IP) were performed using an anti-FLAG antibody (a-FLAG); western blots (WB) were developed using an anti-HA or an anti-MKK7 antibody, as shown.
Co-immunoprecipitation assays were performed as described previously (Papa et al., 2004). Briefly, human HEK-293T cells were seeded at a density of 1.8-2.2×10^6 cells/dish in […] tissue-culture dishes and then transfected with pcDNA-FLAG-hMKK7 and pcDNA-HA-hGADD45β by using the calcium phosphate precipitation method (Papa et al., 2004). 48 hr after transfection, cells were washed with PBS and then lysed in lysis buffer supplemented with protease inhibitors (1 mM phenylmethylsulfonylfluoride, 10 μM chymostatin, 2 μg/mL aprotinin, 2 μg/mL leupeptin; Roche) for 30 min in ice. Cell lysates were cleared by centrifugation at 45,000×g for 40 min and then used for co-immunoprecipitations with anti-FLAG M2 Affinity Gel (Sigma-Aldrich), binding to FLAG-tagged MKK7. Western blots were developed using an anti-HA (binding to HA-hGADD45β) or an anti-MKK7 antibody. […]

[2] = molecular target: GST-MKK7 (full-length human MKK7 fused to an N-terminal GST tag) (human) (UniProt O14733); experiment: ELISA Gadd45β/MKK7 competition; after 48-hr pre-incubation with human serum at 37 C
[3] = molecular target: GST-MKK7 (full-length human MKK7 fused to an N-terminal GST tag) (human) (UniProt O14733); experiment: ELISA Gadd45β/MKK7 competition; without serum pre-incubation
[4] = molecular target: GST-MKK7 (full-length human MKK7 fused to an N-terminal GST tag) (human) (UniProt O14733); experiment: ELISA Gadd45β/MKK7 competition (summary sentence on FIGS. 4 to 8)
[5] = tested on: multiple myeloma cell lines; experiment: [3H]thymidine incorporation assay, survival of multiple myeloma cell lines; assay type: cell-based, human; conditions: for cytotoxic activity in multiple myeloma cell lines: 6-day treatment, all lines tested apart from RPMI-8226 and KMM-1; for IC50 values in the sensitive multiple myeloma cell lines: 144 hr, sensitive (Gadd45β-dependent) cell lines
Procedure: as §1
[^3H]Thymidine incorporation and trypan blue exclusion assays were performed using standard methods (Mauro et al., 2011). […] Apoptosis analyses were performed using PI staining as described in Mauro et al., 2011. Additional details are provided in the Supplemental Experimental Procedures.

[6] = mouse, in vivo
Procedure: In vitro pharmacokinetic assays were performed according to established, in-house protocols and included: plasma stability (human), thermodynamic solubility (PBS pH 7.4, at 37° C. for 14 days), microsomal stability (human), plasma protein binding (PPB; mouse and human), and distribution coefficient (Log D). In vivo pharmacokinetic analyses were also performed at Cyprotex according to established, in-house protocols. Briefly, the peptides were dissolved in PBS and administered by single intravenous injection to CD1 male mice at the dose of 10 mg/kg (25-30 g of total body weight; n=3 mice per time point per compound). Blood samples were collected in heparinized tubes at up to 7 time points after this injection (i.e. 0.08, 0.25, 0.5, 1, 2, 4 and 8 hr), and the plasma concentrations of the test peptide were determined at each time point by LC-MS/MS, using a five-point standard curve covering a peptide concentration range from 3 to 3,000 ng/mL. Standard curves were prepared using blank plasma matrices and treated in the same manner as the test samples. […] Values were calculated from the data of the peptide plasma concentration versus time curves using a non-compartmental model analysis, as described elsewhere (Groulx, 2006; Landaw and Di Stefano 3rd, 1982). The doses of z-DTP2 and DTP3 predicted to achieve the therapeutic plasma concentration of 1 μM at the steady state were calculated from the measured pharmacokinetic values using the following equation: k0=k1×Vd×Cp (where Vd is expressed in L/kg; Cp is the plasma concentration at the steady state expressed in mg/L; k0 is the zero order input expressed in mg/kg/hr; k1 is the first order elimination constant [0.693/t1/2]).

For CC(C)C[C@H](NC(=O)[C@H](Cc1ccccc1)NC(=O)c1cnccn1)B(O)O [bortezomib, reference compound], the IC50 (KMS-12 cells) was 6 nM and the IC50 (U266 cells) was 6 nM.
In the case of “Ac-Arg-Phe-Tyr-NH2 (Ac-[dR]-[dF]-[dY]-NH2) [SCRB, scrambled control D-tripeptide, reference compound]”, the “percentage of apoptotic cells” value [1] is reported as “no more than 27.2%” and the “disruption of the Gadd45β/MKK7 complex” value (Gadd45β/MKK7 complex) is reported as “not”.
In the case of “DTP3 (Acetyl-Tyr-Arg-Phe-NH2, all residues in the D configuration)”, the IC50 [2] is reported as 0.13 nM and the IC50 [3] is reported as 0.16 nM.
With “DTP3 (Acetyl-Tyr-Arg-Phe-NH2, all residues in the D configuration) (peptide)” the IC50 [4] was under 1 nM.
For “tetrapeptide Tyr-Asp-His-Phe, D-configuration, NH2 group at the C terminal, benzyloxycarbonyl group at the N terminal (Cbz-[dY][dD][dH][dF]-NH2) [z-DTP1]”, the “cytotoxic activity in multiple myeloma cell lines” value [5] was “potent and dose-dependent toxicity” and the “IC50 values in the sensitive multiple myeloma cell lines” value [5] was “low nM to low μM”.
In the case of “tetrapeptide Tyr-Glu-Arg-Phe, D configuration, NH2 group at the C terminal, benzyloxycarbonyl group at the N terminal (Cbz-[dY][dE][dR][dF]-NH2) [z-DTP2]”, the “predicted dose required to achieve the therapeutic plasma concentration of 1 μM at the steady state (k0)” value [6] is reported as 3.61 mg/kg/h, the “cytotoxic activity in multiple myeloma cell lines” value [5] is reported as “potent and dose-dependent toxicity” and the “IC50 values in the sensitive multiple myeloma cell lines” value [5] is reported as “low nM to low μM”.
